Columns and labels:
genomic DNA = assay: ChIP-seq of JP2NT-OE hearts; format: binding, mouse; conditions: anti-HA ChIP-seq
Procedure: ChIP-seq from transgenic myocardium was performed using the antibody against HA-tag, which pulls down the HA-tagged JP2NT. Sequencing libraries were prepared for the pulled-down DNA and input DNA (randomly fragmented genomic DNA), and then were subjected to Illumina sequencing (NextSeq 500 platform, 75 bp single end reads). The quality of sequencing reads was evaluated by FastQC (version 0.11.3) software (http://www.bioinformatics.babraham.ac.uk/projects/fastqc/) and the sequencing adaptor was trimmed by Cutadapt (version 1.8.1) software (Martin, 2011). Processed sequencing reads were aligned to mouse genome (mm10) by Bowtie 2 (version 2.2.5) software (Langmead et al., 2012) with the “-end-to-end” mode. MACS (version 1.4.2) software […] was used to call enriched peaks (the cutoff of significance was p value<1e-10). Homer (version 4.8.3) software (Heinz et al., 2010) was used to analyze the enriched genomic features of peaks, identify the target genes, and search the binding motifs.

TATA box DNA sequences = assay: Gel shift assay with TATA box sequences; format: binding; conditions: GST-purified protein; cMyc or CMV promoter sequences
Text: FIGS. 11A-H. JP2NT is a TATA-box binding protein enriched at transcription start site (TSS) and interacts with basic transcription machinery. […] C) 293T cells were transfected with HA-tagged JP2NT, followed by crosslinking-reversal immunoprecipitation with anti-HA and immunoblotting with anti-polymerase II (Rpb1) or anti-TATA box binding protein (TBP). D-H) JP2NT binds to TATA box DNA sequences in vitro. D-E) Gel shift assays of GST-purified JP2NT binding to WT (D). or mutated TATA box-containing sequences (E) derived from the cMyc promoter. F) Summary of the results of gel shift assays with various of TATA box variants or mutants. Mutation of the core TATA sequences abolished the interaction with GST-JP2NT. G) Deletion of the ARR, but not the N-terminal MORN domains, eliminated JP2NT binding to the TATA box sequence. H) The peptide JP2^331-405 containing the ARR specifically binds to WT TATA box sequence.
TBP specifically binds to TATA boxes, eukaryotic core cis-regulatory elements localized at transcription start site. […] This interaction was abrogated by mutation of the TATA box elements (FIGS. 11E&G and 17B). It was concluded that JP2NT is a DNA binding protein, binding to consensus TATA box represented as TATAA(A/T) or TATATA (FIG. 11F).

JP2-KD cardiomyocytes = assay: Confocal Ca2+ imaging in JP2-KD cardiomyocytes after adenoviral expression; format: cell-based, mouse; conditions: 1-Hz field stimulation
Text: Specifically, conditional shJP2 mice (provided by Dr. Wehrens) (van Oort et al., 2011) were crossed with mice carrying the cardiac-specific α-myosin heavy chain promoter upstream of Cre (% MHC-Cre, also FVB-Tg(Myh6-cre)2182Mds/J, The Jackson Laboratory). The shJP2 mice were maintained on a C57BL/6 background for more than 10 generations. The αMHC-Cre mice were maintained on an FVB background. PCR was used to genotype the offspring. The near complete depletion of JP2 protein in JP2-KD (αMHC-Cre X shJP2) hearts has been reported recently (Chen et al., 2013). JP2-KD mice were sacrificed at 2 months of age for isolation and culture of ventricular cardiomyocytes as described below.
Genecarrior-1 (Epoch Lab) was used to transfect plasmids into HEK293T cells. Isolation and culture of cardiomyocytes were performed as described previously (Guo et al., 2012). […] Ca^2+ Imaging experiments were performed 40 hours after adenoviral infection.
Cells were loaded with Rhod-2AM at 37° C. for 20 minutes, followed by washing with Tyrode's solution at room temperature for 15 minutes before Ca^2+ imaging. Confocal images were acquired using a ×63, 1.3 numerical aperture oil immersion objective mounted on a Zeiss LSM 510 confocal microscope. Confocal line scanning was used to record Ca^2+ signals. Steady-state Ca^2+ transients were recorded in Tyrode's solution containing 1.8 mM Ca^2+ under field stimulation of 1 Hz. At least five steady-state transients for each cell were analyzed and averaged to represent Ca^2+ signals of the cell. Ca^2+ imaging data were analyzed by using a home-complied software, CaTeasy, which is coded in MATLAB 2013a (Mathworks). Briefly, the program normalizes Ca^2+ transient images on a column-by-column basis (512 columns/image). The characteristic parameters of normalized transients were detected automatically. The firing time of every scanning pixel was detected column by column on the basis of the maximum local variability of pixel intensity. The profile of the point-to-point firing time was indicated by a red line overlapping on the Ca^2+ image. Index of desynchronization, defined by the mean absolute deviation of firing time of each scanning pixel (with every 8 pixels binned), was used to evaluate the dyssynchrony of Ca^2+ transients. This automated software for calcium transient analysis is available upon request.

[1] = system: cultured adult murine cardiomyocytes; assay: RT-qPCR in cultured cardiomyocytes; format: cell-based, mouse; conditions: compared with Ad-Empty infected cells
Procedure: RNA of cultured cardiomyocytes was extracted using RNAeasy (Qiagene). Myocardium RNA was extracted using Trizol. Total RNA was treated with DNASE-I to eliminate genomic DNA and then cleaned using RNA cleanup Kit (Qiagene).
Superscript II were used for Reverse Transcription of mRNA. A QUANT STUDIO 3 real-time PCR machine was used to run qPCR. The primers used in RT-PCR were: […]

[2] = system: MEF2C-mediated transcriptional activity; assay: MEF2 luciferase reporter assay; format: cell-based; conditions: 293 cells co-transfected with MEF2C and PMEF2-firefly, relative to PSV40-Renilla
Procedure: Firefly and Renilla reporter plasmids and JP2NT variants were co-transfected into HEK293 cells. The protein of the cells was harvested 48 hours after transfection. Promega dual luciferase system was used to evaluate the luciferase activity.
To examine whether JP2NT regulates MEF2-mediated transcription, a luciferase reporter system with firefly cDNA driven by the desmin enhancer-derived MEF2 binding site (PMEF2-firefly) (Naya et al., 1999) was used.

[3] = system: cardiac transcription profile; assay: RNA-Seq of myocardium of JP2NT-OE mice; format: in vivo, mouse
Procedure: Illumina TruSeq Stranded mRNA Library Prep Kit was used to prepare the sequencing library for myocardium samples. Sequencing was performed by Illumina HiSeq 2500 platform (2×125 bp paired-end). Kallisto (0.42.5) software (Bray et al., 2016) was used to quantify transcript abundance of mouse transcriptome (Grcm38). Sleuth (0.28.1) software (Pimentel et al., 2018) was used to investigate the differential expression of transcripts between groups (the cutoff of significance was p value<0.01).

B1: JP2NT: shorter form of Junctophilin-2 including the first 565 amino acids of N-terminus of JP2 (protein, UniProt Q9BR39 1-565, looked up, fragment)
chain: MSGGRFDFDDGGAYCGGWEGGKAHGHGLCTGPKGQGEYSGSWNFGFEVAGVYTWPSGNTFEGYWSQGKRHGLGIETKGRWLYKGEWTHGFKGRYGIRQSSSSGAKYEGTWNNGLQDGYGTETYADGGTYQGQFTNGMRHGYGVRQSVPYGMAVVVRSPLRTSLSSLRSEHSNGTVAPDSPASPASDGPALPSPAIPRGGFALSLLANAEAAARAPKGGGLFQRGALLGKLRRAESRTSVGSQRSRVSFLKSDLSSGASDAASTASLGEAAEGADEAAPFEADIDATTTETYMGEWKNDKRSGFGVSERSSGLRYEGEWLDNLRHGYGCTTLPDGHREEGKYRHNVLVKDTKRRMLQLKSNKVRQKVEHSVEGAQRAAAIARQKAEIAASRTSHAKAKAEAAEQAALAANQESNIARTLARELAPDFYQPGPEYQKRRLLQEILENSESLLEPPDRGAGAAGLPQPPRESPQLHERETPRPEGGSPSPAGTPPQPKRPRPGVSKDGLLSPGAWNGEPSGEGSRSVTPSEGAGRRSPARPATERMAIEALQAPPAPSREPEVALYQG
modifications: GST or adenoviral forms
notes: shorter form of Junctophilin-2 including the first 565 amino acids of N-terminus of JP2
JP2NT-binding genomic DNA regions (p<10^−10) (genomic DNA): 18,242 | genes encompassed by JP2NT-binding regions (genomic DNA): 10,587 genes | binding to TATA box (TATA box DNA sequences): directly binds | restoration of Ca2+ transients (JP2-KD cardiomyocytes): failed to restore | cardiac hypertrophy markers ANP and BNP (mRNA) [1]: not altered | mRNA levels of KLF4, KLF6, Myc, TGFβR1, NFKBIA, FOXO1, PI3KR1 et al [1]: significantly decreased | MEF2-responsive luciferase signal [2]: attenuated the MEF2-responsive signal in a dose-dependent manner | ERK, TGF-β, CREB and NFκ-B signaling pathways (IPA) ([3]; TAB): predicted inhibition | known genes of negatively influenced transcripts ([3]; TAB): 481 genes | known genes of positively influenced transcripts ([3]; TAB): 476 genes | transcripts negatively influenced ([3]; TAB): 540 transcripts | transcripts positively influenced ([3]; TAB): 542 transcripts | transcripts significantly different in response to cardiac stress ([3]; TAB, linear regression model, p<0.01): 1082 transcripts | known genes from which the significantly different transcripts derive ([3]; TAB, p<0.01): 954 genes | significantly altered genes (p<0.01) at baseline ([3]; baseline, relative to control littermates): 49 genes
